Common to all, as to assay: MST
Holding throughout (conditions): 25 mM Tris-HCl pH 8.0, 150 mM NaCl (150 mM LiCl for Sc1 LiCl), 1 mM DTT, 0.1 mg/ml BSA; 20 nM Cy5-RNA; about 2 min incubation; temperature not stated; low values mean tight binding

The target of data set [1] is T1, BnGRP7 (Brassica napus) (UniProt A0A078J5Z4).
T1 sequence: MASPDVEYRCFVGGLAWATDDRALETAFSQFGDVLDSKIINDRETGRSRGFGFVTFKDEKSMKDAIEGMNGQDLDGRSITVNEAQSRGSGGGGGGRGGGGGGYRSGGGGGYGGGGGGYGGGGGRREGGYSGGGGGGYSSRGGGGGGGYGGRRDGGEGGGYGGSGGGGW

The target of data set [2] is T2, AtBnGRP7 (Arabidopsis thaliana / Brassica napus chimera) (UniProt Q03250).
T2 sequence: T1 sequence with P4G, S29A, F31Y, L35I, S61A

In data set [3] the target is T3, AtGRP7YtoE Y103E;Y111E;Y118E;Y131E;Y138E;Y148E;Y159E;Y167E (Arabidopsis thaliana) (UniProt Q03250).
T3 sequence: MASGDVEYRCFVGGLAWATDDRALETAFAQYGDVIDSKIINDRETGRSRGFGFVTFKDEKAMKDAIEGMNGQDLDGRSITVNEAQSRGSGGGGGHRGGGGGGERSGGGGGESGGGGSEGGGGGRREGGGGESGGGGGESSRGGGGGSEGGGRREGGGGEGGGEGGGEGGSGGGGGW

Data set [4] addresses T4, AtGRP7YtoG Y103G;Y111G;Y118G;Y131G;Y138G;Y148G;Y159G;Y167G (Arabidopsis thaliana) (UniProt Q03250).
T4 sequence: T3 sequence with E103G, E111G, E118G, E131G, E138G, E148G, E159G, E167G

The target in data set [5] is T5, AtGRP7StoG S132G;S139G (Arabidopsis thaliana) (UniProt Q03250).
T5 sequence: T3 sequence with E103Y, E111Y, E118Y, E131Y, S132G, E138Y, S139G, E148Y, E159Y, E167Y

In data set [6] the target is T6, AtGRP7StoE S132E;S139E (Arabidopsis thaliana) (UniProt Q03250).
T6 sequence: T3 sequence with E103Y, E111Y, E118Y, E131Y, S132E, E138Y, S139E, E148Y, E159Y, E167Y

For data set [7], the target named is T7, AtGRP7 (Arabidopsis thaliana) (UniProt Q03250).
T7 sequence: T3 sequence with E103Y, E111Y, E118Y, E131Y, E138Y, E148Y, E159Y, E167Y

The target of data set [8] is T8, AtGRP7short (Arabidopsis thaliana) (UniProt Q03250).
T8 sequence: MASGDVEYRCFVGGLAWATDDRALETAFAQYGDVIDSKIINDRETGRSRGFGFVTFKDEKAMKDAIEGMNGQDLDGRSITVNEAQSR

Substitutions are numbered along the chain they refer to. pKd: −log10 of the molar value.

Broadly, the pKd is the Kd on a negative log10 scale, so that one unit is a factor of ten.

Take AtCOR15A: the pKd is 6.49 in data set [1]; 6.13 in data set [2]; 4.63 in data set [3]; 5.43 in data set [4]; 5.65 in data set [5]; 6.13 in data set [6]. The negative logarithm of the Kd (pKd) in data set [7] is 6.65.
On to “GGAUGGCGAUGUCUUUCUCAGGAGCUGUUCUCACUGGUAUGGCUUCUUCUUUCCACAGCGGAGCCAAGCAGAGCAGCUUCGGCGCUGUCAGAGUCGGCCAGAAAACUCAGUUCGUCGUCGUUUCUCAACGCAAGAAGUCGUUGAUCUACGCCGCUAAAGGUGACGGCAACAUCCUCGAUGACCUCAACGAGGCCACAAAGAAAGCUUCAGAUUUCGUGACGGAUAAAACAAAAGAGGCAUUAGCAGAUGGUGAGAAAGCGAAAGACUACGUUGUUGAAAAAAACAGUGAAACCGCAGAUACAUUGGGUAAAGAAGCUGAGAAAGCUGCGGCGUAUGUGGAGGAGAAAGGAAAAGAAGCCGCAAACAAGGCGGCAGAGUUCGCGGAGGGUAAAGCAGGAGAGGCUAAGGAUGCCACAAAGUAG [AtCOR15A]”, for which the pKd in data set [1] was 6.82; in data set [2], 6.26; in data set [4] it was 5.57; in data set [5], 5.64; in data set [6], 5.61; in data set [7], 7.21.
Regarding “GGAUGUCUGAAGUUGAGUACCGGUGCUUUGUCGGCGGCCUUGCCUGGGCCACCAAUGAUGAAGAUCUUCAAAGGACGUUCUCACAGUUCGGCGACGUUAUCGAUUCUAAGAUCAUUAACGACCGCGAGAGUGGAAGAUCAAGGGGAUUCGGAUUCGUCACCUUCAAGGACGAGAAAGCCAUGAGGGAUGCGAUUGAAGAGAUGAACGGUAAAGAGCUCGAUGGACGUGUCAUCACCGUGAACGAGGCUCAGUCGAGAGGUAGCGGCGGUGGCGGAGGAGGCCGUGGUGGAAGCGGUGGUGGUUACCGCAGCGGAGGCGGUGGUGGAUACUCAGGAGGCGGUGGCGGCGGAUACUCAGGAGGAGGCGGUGGUGGUUACGAGAGACGUAGCGGAGGUUACGGAUCUGGUGGAGGCGGUGGUGGCCGAGGAUACGGUGGUGGUGGACGCCGUGAGGGAGGUGGCUACGGAGGCGGUGAUGGUGGAAGUUACGGAGGCGGUGGUGGCGGCUGGUAA [AtGRP8]”, the pKd was 5.04 in data set [1]; 6.87 in data set [2]; 5.55 in data set [3]; 6.42 in data set [4]; 6.31 in data set [5]; 6.03 in data set [6]. Besides, the pKd in data set [7] was 6.75.
As for “GGAUUUGCGCAUUAAACCAAAAAGUGUCACGUGAUAUGUCCCCAACCACUACGAAUUUUAACUACAGAUUUAACCAUGGUUAAACCAGAAUUCACGUAAACCGACUCUAAACCUAGAAAAUAUCUAAACCUUGGUUAAUAUCUCAGCCCCCUUAUAAAUAACGAGACUUCGUCUACAUCGUUCUACACAUCUCACUGCUCACUACUCUCACUGUAAUCCCUUAGAUCUUCUUUUCAAAUUUCAAUGGCGUCCGGUGAUGUUGAGUAUCGGUGCUUCGUUGGAGGUCUAGCAUGGGCCACUGAUGACAGAGCUCUUGAGACUGCCUUCGCUCAAUACGGCGACGUUAUUGAUUCCAAGGUCUGUUACACGCCGAGAUCGGACUCCGAGUGAUAUCGAUGAUCUCAUCCUCGACGGAUCUGUUCCGAUCUUGUGUUUCUCUGUUACUUGAUUCGAUUACUCUGUUACUAUUCUCGUUCUUUGUUACUACUACUACUACUACUGUUACUUGUAUUUUCCCAAAUCGGUACGUUCAUCUUCCUGCUUCUGUGAGCCCGGAGAUCGAUCGGAUUUUUUUGUAUUUUGUAUAUUUGUUGUAGAUCUAAAUGCUUUUGUUCAGUUUUGUUGGAUUGUUUUGCUGAUCUGGUUUUUGUAUUAUUUGGAUAACAGAUCAUUAACGAUCGUGAGACUGGAAGAUCAAGGGGAUUCGGAUUCGUCACCUUCAAGGAUGAGAAAGCCAUGAAGGAUGCGAUUGAGGGAAUGAACGGACAAGAUCUCGAUGGCCGUAGCAUCACUGUUAACGAGGCUCAGUCACGAGGAAGCGGUGGCGGCGGAGGCCACCGUGGAGGUGGUGGCGGUGGAUACCGCAGCGGCGGUGGUGGAGGUUACUCCGGUGGAGGUGGUAGCUACGGAGGUGGCGGCGGUAGACGCGAGGGUGGAGGAGGAUACAGCGGCGGCGGCGGCGGUUACUCCUCAAGAGGUGGUGGUGGCGGAAGCUACGGUGGUGGAAGACGUGAGGGAGGAGGAGGAUACGGUGGUGGUGAAGGAGGAGGUUACGGAGGAAGCGGUGGUGGUGGAGGAUGGUAAUUCCUUUAAUUAGGUUUGGGAUUACCAAUGAAUGUUCUCUCUCUCGCUUGUUAUGCUUCUACUUGGUUUUGUGUGUUCUCUAUUUUGUUCUGGUUCUGCUUUAGAUUUGAUGUAACAGUUCGUGAUUAGGUAUUUUGGUAUCUGGAAACGUAAUGUUAAGUCACUUGUCAUUCUCUAAAUAACAAAUUUCUUCGGAGAUAUUAUCUCUGUUGAUUGAUUCUAUCAUCUAAAUUUCGGAAAUGCUAAUCGGAUACCGGAAUGGUGCCUUUGUUACGAUUGAGUUACUUACAUCACUGAUACAACAAUGAAGUACUUACUGAUUAUCUUUAUACCAUUCACCACACUACCUUUGAUAUUCAACAAUGAAGUAGAAACCUAUUUGGUUCAUUCGCA [AtGRP7]”, the negative-log Kd (pKd) in data set [1] is 4.79; in data set [2] it was 6.76; in data set [3] it was 4.67; in data set [4] it was 4.71; in data set [5], 6.22; in data set [6], 5.75. The negative logarithm of the Kd (pKd) in data set [7] is 6.44.
Take “GGCUCGAAACGAGGAGAAAAAAUCAUUAGUUAUCGAAAAUGCUCACAUGAUGUGGGCCUAACCACUAACCCAAUUAACCACACAUCUUAAUCAGAGUAAGUUGAAACAAAUCUUUCAGCAAACCCUAGAAAACAUGUUUAACCCUAGUUAUUACGUCACACCUGUUCUAUAAAUUAAGGCUGCGUCUUAUCACCUCAAAUCACAUAAGUCUCUCUCUUACAUUUUGAAACCCUAAUUUCUCUUCUUUUCCCCAAAAAAAAAUGUCUGAAGUUGAGUACCGGUGCUUUGUCGGCGGCCUUGCCUGGGCCACCAAUGAUGAAGAUCUUCAAAGGACGUUCUCACAGUUCGGCGACGUUAUCGAUUCUAAGGUCUGUUACACGAGAGAUCGGUCUCCCGGAUCGAGCCGAUUCCGAUGAUUCUGAUCCUCGACGGAUCUGAUUCCGAUCUGUUUCUCUGUUACUUGAUUCGAUUACUGUUACUAUGUUCUCUCUCGUUCUUUGUUACUGUUACUUAAUUUGUCCCAUCGGUACGUUCAUCUUCCUGCUUCUAUGAGCUCGGAGAUCGAUCGAUUUUUGCUUUAUAUUCAUCGCUUUGUUUUAUAUUCCUUCCACGAUUGUUUUUGCUGAUGUGUAUGAUUUUGUUUGUUUACAGAUCAUUAACGACCGCGAGAGUGGAAGAUCAAGGGGAUUCGGAUUCGUCACCUUCAAGGACGAGAAAGCCAUGAGGGAUGCGAUUGAAGAGAUGAACGGUAAAGAGCUCGAUGGACGUGUCAUCACCGUGAACGAGGCUCAGUCGAGAGGUAGCGGCGGUGGCGGAGGAGGCCGUGGUGGAAGCGGUGGUGGUUACCGCAGCGGAGGCGGUGGUGGAUACUCAGGAGGCGGUGGCGGCGGAUACUCAGGAGGAGGCGGUGGUGGUUACGAGAGACGUAGCGGAGGUUACGGAUCUGGUGGAGGCGGUGGUGGCCGAGGAUACGGUGGUGGUGGACGCCGUGAGGGAGGUGGCUACGGAGGCGGUGAUGGUGGAAGUUACGGAGGCGGUGGUGGCGGCUGGUAAUCAAAGAUAGAGUUGUUUGCGUGCUGCUGCUCUGUUUUUGGUUUAGAUUUGGUUUUGUGUCACCACUUCUGGUUUGGUUAUCGUUCGUUUGGUUUACUUUUUUGAUGAAACAGUUUCGUUUAAGUCUUCUUUGUCUGGAACGAAAUGUUAAUUCGCGUGUUGUUUACUAAAUUUAUAACGUUUCCUUUUAACCAGAUUCGAGAUUUUCCCUCAAAUAAUUUAUCUUGUUAGACACAUGUAUUUAAUCGAACAGCAGCUAAAGGAUUCAAAUGAUUUUCUUAUCAAUAAUUACUAUAGUUUGAAAUUGAUUAGUUCUUUAACUUUUGACCUACCAAUA [AtGRP8]”: the pKd in data set [1] was 6.30; in data set [2], 6.51; in data set [4], 5.47; in data set [5], 5.86; in data set [6], 6.03; in data set [7], 6.81.
With UGGAGAAGCAGGGCACGUGCA [miR164], the pKd in data set [1] is 7.68; in data set [8], 5.23; in data set [7] it was 7.38.

For the origin of these results see article PMC11239674.
